Patent US12679878B2, “CRF2 receptor agonists and their use in therapy” (SANOFI, priority 2020, dated 2026)
Starred links: 1 amine or outer side, 2 acyl side, 3 side chain; linkers in the order of their positions; H or OH if unused. Non-standard residues stand in square brackets, D forms with d. Groups on a side chain read outwards from the residue. No end group written: not given here. *: point of attachment. C18 diacid = O=C(O)CCCCCCCCCCCCCCCCC(=O)*; γGlu = O=C(O)[C@H](CCC(=O)[*:2])N[*:1]; Palmitoyl = CCCCCCCCCCCCCCCC(=O)*; AEEA = NCCOCCOCC(=O)O; Aib = CC(C)(N)C(=O)O

T1: anti-target CRF1R receptor (UniProt P34998 24-415, limits assumed)
T1 sequence (looked up): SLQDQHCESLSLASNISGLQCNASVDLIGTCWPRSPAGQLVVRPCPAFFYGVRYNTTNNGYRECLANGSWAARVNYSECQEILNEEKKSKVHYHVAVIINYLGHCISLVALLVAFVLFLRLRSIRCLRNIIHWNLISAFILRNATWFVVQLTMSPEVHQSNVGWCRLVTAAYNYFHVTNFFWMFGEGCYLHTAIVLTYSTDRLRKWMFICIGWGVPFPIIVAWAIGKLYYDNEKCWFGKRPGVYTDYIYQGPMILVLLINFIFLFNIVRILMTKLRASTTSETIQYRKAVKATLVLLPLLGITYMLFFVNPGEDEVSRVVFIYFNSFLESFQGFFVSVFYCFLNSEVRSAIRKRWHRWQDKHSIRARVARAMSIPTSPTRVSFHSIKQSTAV


Columns and labels:
[1] = target: rat CRF2R α receptor (rat, UniProt P47866 20-411); assay: cell-based or functional assay
[2] = target: T1, anti-target CRF1R receptor; assay: cell-based or functional assay

rat CRF2R α receptor, sequence (P47866 20-411): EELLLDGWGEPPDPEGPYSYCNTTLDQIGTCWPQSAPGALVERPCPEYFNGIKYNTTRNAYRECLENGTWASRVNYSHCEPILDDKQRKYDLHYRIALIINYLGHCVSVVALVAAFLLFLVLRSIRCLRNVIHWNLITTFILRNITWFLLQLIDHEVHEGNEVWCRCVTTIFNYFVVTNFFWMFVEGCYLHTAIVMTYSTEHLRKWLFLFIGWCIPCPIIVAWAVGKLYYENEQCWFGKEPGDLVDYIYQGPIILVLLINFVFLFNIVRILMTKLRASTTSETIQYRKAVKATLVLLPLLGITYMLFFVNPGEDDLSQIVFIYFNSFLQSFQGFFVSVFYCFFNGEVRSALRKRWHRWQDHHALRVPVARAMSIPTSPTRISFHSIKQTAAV

EC50 [nM], 0% HSA (cAMP, A7R5 cells) [1]	EC50[nM] 0% HSA (cAMP, CRF1R-overexpression CHO cells) [2]	Emax (%) (cAMP, CRF1R-overexpression CHO cells) [2]	Binder
0.42 nM			IVLSLD[dV]PIKLK(C18 diacid)QILLKQERQKKQRQQAEKNKQILAQV-NH2 (N-terminus assumed; SMILES CC[C@H](C)[C@H](N)C(=O)N[C@H](C(=O)N[C@@H](CC(C)C)C(=O)N[C@@H](CO)C(=O)N[C@@H](CC(C)C)C(=O)N[C@@H](CC(=O)O)C(=O)N[C@@H](C(=O)N1CCC[C@H]1C(=O)N[C@H](C(=O)N[C@@H](CCCCN)C(=O)N[C@@H](CC(C)C)C(=O)N[C@@H](CCCCNC(=O)CCCCCCCCCCCCCCCCC(=O)O)C(=O)N[C@@H](CCC(N)=O)C(=O)N[C@H](C(=O)N[C@@H](CC(C)C)C(=O)N[C@@H](CC(C)C)C(=O)N[C@@H](CCCCN)C(=O)N[C@@H](CCC(N)=O)C(=O)N[C@@H](CCC(=O)O)C(=O)N[C@@H](CCCNC(=N)N)C(=O)N[C@@H](CCC(N)=O)C(=O)N[C@@H](CCCCN)C(=O)N[C@@H](CCCCN)C(=O)N[C@@H](CCC(N)=O)C(=O)N[C@@H](CCCNC(=N)N)C(=O)N[C@@H](CCC(N)=O)C(=O)N[C@@H](CCC(N)=O)C(=O)N[C@@H](C)C(=O)N[C@@H](CCC(=O)O)C(=O)N[C@@H](CCCCN)C(=O)N[C@@H](CC(N)=O)C(=O)N[C@@H](CCCCN)C(=O)N[C@@H](CCC(N)=O)C(=O)N[C@H](C(=O)N[C@@H](CC(C)C)C(=O)N[C@@H](C)C(=O)N[C@@H](CCC(N)=O)C(=O)N[C@H](C(N)=O)C(C)C)[C@@H](C)CC)[C@@H](C)CC)[C@@H](C)CC)C(C)C)C(C)C) [peptide of SEQ ID NO: 184]
0.61 nM			IVLSLD[dV]PIKLK([γGlu-Palmitoyl])QKLLKQQRQRKERQQAEKNKRILERV-NH2 (N-terminus assumed; SMILES CCCCCCCCCCCCCCCC(=O)N[C@@H](CCC(=O)NCCCC[C@H](NC(=O)[C@H](CC(C)C)NC(=O)[C@H](CCCCN)NC(=O)[C@@H](NC(=O)[C@@H]1CCCN1C(=O)[C@H](NC(=O)[C@H](CC(=O)O)NC(=O)[C@H](CC(C)C)NC(=O)[C@H](CO)NC(=O)[C@H](CC(C)C)NC(=O)[C@@H](NC(=O)[C@@H](N)[C@@H](C)CC)C(C)C)C(C)C)[C@@H](C)CC)C(=O)N[C@@H](CCC(N)=O)C(=O)N[C@@H](CCCCN)C(=O)N[C@@H](CC(C)C)C(=O)N[C@@H](CC(C)C)C(=O)N[C@@H](CCCCN)C(=O)N[C@@H](CCC(N)=O)C(=O)N[C@@H](CCC(N)=O)C(=O)N[C@@H](CCCNC(=N)N)C(=O)N[C@@H](CCC(N)=O)C(=O)N[C@@H](CCCNC(=N)N)C(=O)N[C@@H](CCCCN)C(=O)N[C@@H](CCC(=O)O)C(=O)N[C@@H](CCCNC(=N)N)C(=O)N[C@@H](CCC(N)=O)C(=O)N[C@@H](CCC(N)=O)C(=O)N[C@@H](C)C(=O)N[C@@H](CCC(=O)O)C(=O)N[C@@H](CCCCN)C(=O)N[C@@H](CC(N)=O)C(=O)N[C@@H](CCCCN)C(=O)N[C@@H](CCCNC(=N)N)C(=O)N[C@H](C(=O)N[C@@H](CC(C)C)C(=O)N[C@@H](CCC(=O)O)C(=O)N[C@@H](CCCNC(=N)N)C(=O)N[C@H](C(N)=O)C(C)C)[C@@H](C)CC)C(=O)O) [peptide of SEQ ID NO: 227]
0.12 nM			IVLSLD[dV]PTKLK([γGlu-Palmitoyl])QKLLKQERQRKERE[Aib]AEKNKRILERV-NH2 [peptide of SEQ ID NO: 225]
0.04 nM			IVLSLD[dV]PIGLK([γGlu-Palmitoyl])QKLLKQQRQRKERQQAEKNKRILERV-NH2 (N-terminus assumed; SMILES CCCCCCCCCCCCCCCC(=O)N[C@@H](CCC(=O)NCCCC[C@H](NC(=O)[C@H](CC(C)C)NC(=O)CNC(=O)[C@@H](NC(=O)[C@@H]1CCCN1C(=O)[C@H](NC(=O)[C@H](CC(=O)O)NC(=O)[C@H](CC(C)C)NC(=O)[C@H](CO)NC(=O)[C@H](CC(C)C)NC(=O)[C@@H](NC(=O)[C@@H](N)[C@@H](C)CC)C(C)C)C(C)C)[C@@H](C)CC)C(=O)N[C@@H](CCC(N)=O)C(=O)N[C@@H](CCCCN)C(=O)N[C@@H](CC(C)C)C(=O)N[C@@H](CC(C)C)C(=O)N[C@@H](CCCCN)C(=O)N[C@@H](CCC(N)=O)C(=O)N[C@@H](CCC(N)=O)C(=O)N[C@@H](CCCNC(=N)N)C(=O)N[C@@H](CCC(N)=O)C(=O)N[C@@H](CCCNC(=N)N)C(=O)N[C@@H](CCCCN)C(=O)N[C@@H](CCC(=O)O)C(=O)N[C@@H](CCCNC(=N)N)C(=O)N[C@@H](CCC(N)=O)C(=O)N[C@@H](CCC(N)=O)C(=O)N[C@@H](C)C(=O)N[C@@H](CCC(=O)O)C(=O)N[C@@H](CCCCN)C(=O)N[C@@H](CC(N)=O)C(=O)N[C@@H](CCCCN)C(=O)N[C@@H](CCCNC(=N)N)C(=O)N[C@H](C(=O)N[C@@H](CC(C)C)C(=O)N[C@@H](CCC(=O)O)C(=O)N[C@@H](CCCNC(=N)N)C(=O)N[C@H](C(N)=O)C(C)C)[C@@H](C)CC)C(=O)O) [peptide of SEQ ID NO: 226]

The next lines start with the binder.

Binder	EC50 [nM], 0% HSA (cAMP, A7R5 cells) [1]	EC50[nM] 0% HSA (cAMP, CRF1R-overexpression CHO cells) [2]	Emax (%) (cAMP, CRF1R-overexpression CHO cells) [2]
FTLSLDVPTKIK([γGlu-Palmitoyl])QKLLKQEKQKKQRQKAKTAAQILAQV-NH2 (N-terminus assumed; SMILES CCCCCCCCCCCCCCCC(=O)N[C@@H](CCC(=O)NCCCC[C@H](NC(=O)[C@@H](NC(=O)[C@H](CCCCN)NC(=O)[C@@H](NC(=O)[C@@H]1CCCN1C(=O)[C@@H](NC(=O)[C@H](CC(=O)O)NC(=O)[C@H](CC(C)C)NC(=O)[C@H](CO)NC(=O)[C@H](CC(C)C)NC(=O)[C@@H](NC(=O)[C@@H](N)Cc1ccccc1)[C@@H](C)O)C(C)C)[C@@H](C)O)[C@@H](C)CC)C(=O)N[C@@H](CCC(N)=O)C(=O)N[C@@H](CCCCN)C(=O)N[C@@H](CC(C)C)C(=O)N[C@@H](CC(C)C)C(=O)N[C@@H](CCCCN)C(=O)N[C@@H](CCC(N)=O)C(=O)N[C@@H](CCC(=O)O)C(=O)N[C@@H](CCCCN)C(=O)N[C@@H](CCC(N)=O)C(=O)N[C@@H](CCCCN)C(=O)N[C@@H](CCCCN)C(=O)N[C@@H](CCC(N)=O)C(=O)N[C@@H](CCCNC(=N)N)C(=O)N[C@@H](CCC(N)=O)C(=O)N[C@@H](CCCCN)C(=O)N[C@@H](C)C(=O)N[C@@H](CCCCN)C(=O)N[C@H](C(=O)N[C@@H](C)C(=O)N[C@@H](C)C(=O)N[C@@H](CCC(N)=O)C(=O)N[C@H](C(=O)N[C@@H](CC(C)C)C(=O)N[C@@H](C)C(=O)N[C@@H](CCC(N)=O)C(=O)N[C@H](C(N)=O)C(C)C)[C@@H](C)CC)[C@@H](C)O)C(=O)O) [peptide of SEQ ID NO: 8]	0.11 nM	> 1000 nM	16%
FTLSLDVPTKIK([AEEA-AEEA-γGlu-C18 diacid])QILFKQQKQKKERQQAEKNKQLLEQI-NH2 (N-terminus assumed; SMILES CC[C@H](C)[C@H](NC(=O)[C@H](CCC(N)=O)NC(=O)[C@H](CCC(=O)O)NC(=O)[C@H](CC(C)C)NC(=O)[C@H](CC(C)C)NC(=O)[C@H](CCC(N)=O)NC(=O)[C@H](CCCCN)NC(=O)[C@H](CC(N)=O)NC(=O)[C@H](CCCCN)NC(=O)[C@H](CCC(=O)O)NC(=O)[C@H](C)NC(=O)[C@H](CCC(N)=O)NC(=O)[C@H](CCC(N)=O)NC(=O)[C@H](CCCNC(=N)N)NC(=O)[C@H](CCC(=O)O)NC(=O)[C@H](CCCCN)NC(=O)[C@H](CCCCN)NC(=O)[C@H](CCC(N)=O)NC(=O)[C@H](CCCCN)NC(=O)[C@H](CCC(N)=O)NC(=O)[C@H](CCC(N)=O)NC(=O)[C@H](CCCCN)NC(=O)[C@H](Cc1ccccc1)NC(=O)[C@H](CC(C)C)NC(=O)[C@@H](NC(=O)[C@H](CCC(N)=O)NC(=O)[C@H](CCCCNC(=O)COCCOCCNC(=O)COCCOCCNC(=O)CC[C@H](NC(=O)CCCCCCCCCCCCCCCCC(=O)O)C(=O)O)NC(=O)[C@@H](NC(=O)[C@H](CCCCN)NC(=O)[C@@H](NC(=O)[C@@H]1CCCN1C(=O)[C@@H](NC(=O)[C@H](CC(=O)O)NC(=O)[C@H](CC(C)C)NC(=O)[C@H](CO)NC(=O)[C@H](CC(C)C)NC(=O)[C@@H](NC(=O)[C@@H](N)Cc1ccccc1)[C@@H](C)O)C(C)C)[C@@H](C)O)[C@@H](C)CC)[C@@H](C)CC)C(N)=O) [peptide of SEQ ID NO: 13]	2.5 nM	> 1000 nM	4.3%
FTLSLDVPTKIK([γGlu-Palmitoyl])QKLLKQEKQKKQRQKAKTNAQILAQV-NH2 (N-terminus assumed; SMILES CCCCCCCCCCCCCCCC(=O)N[C@@H](CCC(=O)NCCCC[C@H](NC(=O)[C@@H](NC(=O)[C@H](CCCCN)NC(=O)[C@@H](NC(=O)[C@@H]1CCCN1C(=O)[C@@H](NC(=O)[C@H](CC(=O)O)NC(=O)[C@H](CC(C)C)NC(=O)[C@H](CO)NC(=O)[C@H](CC(C)C)NC(=O)[C@@H](NC(=O)[C@@H](N)Cc1ccccc1)[C@@H](C)O)C(C)C)[C@@H](C)O)[C@@H](C)CC)C(=O)N[C@@H](CCC(N)=O)C(=O)N[C@@H](CCCCN)C(=O)N[C@@H](CC(C)C)C(=O)N[C@@H](CC(C)C)C(=O)N[C@@H](CCCCN)C(=O)N[C@@H](CCC(N)=O)C(=O)N[C@@H](CCC(=O)O)C(=O)N[C@@H](CCCCN)C(=O)N[C@@H](CCC(N)=O)C(=O)N[C@@H](CCCCN)C(=O)N[C@@H](CCCCN)C(=O)N[C@@H](CCC(N)=O)C(=O)N[C@@H](CCCNC(=N)N)C(=O)N[C@@H](CCC(N)=O)C(=O)N[C@@H](CCCCN)C(=O)N[C@@H](C)C(=O)N[C@@H](CCCCN)C(=O)N[C@H](C(=O)N[C@@H](CC(N)=O)C(=O)N[C@@H](C)C(=O)N[C@@H](CCC(N)=O)C(=O)N[C@H](C(=O)N[C@@H](CC(C)C)C(=O)N[C@@H](C)C(=O)N[C@@H](CCC(N)=O)C(=O)N[C@H](C(N)=O)C(C)C)[C@@H](C)CC)[C@@H](C)O)C(=O)O) [peptide of SEQ ID NO: 11]	0.01 nM	> 1000 nM	12.7%
